Data on one substance can be found in patent publication US20060029603A1.

In general, Kd refers to the equilibrium constant for the complex coming apart. A high value points to lower affinity. As a reminder, the koff is the first-order rate constant of dissociation. A high value points to a short-lived complex. In general, kon refers to the second-order rate constant of association. The low end stands for slow association, the high end for fast association.

The experiment deals with GST-human NOGO-A56 (human) [GST: P08515]. Briefly: SPR (Biacore 3000), GST-human NOGO-A56 on CM5, antibody as analyte; single experiment. (In SPR one partner is held on a chip, and binding of the other changes the refractive index at the surface.)
Sequence of GST-human NOGO-A56 (human) [GST: P08515] (P08515 1-218, tags or fused parts left off): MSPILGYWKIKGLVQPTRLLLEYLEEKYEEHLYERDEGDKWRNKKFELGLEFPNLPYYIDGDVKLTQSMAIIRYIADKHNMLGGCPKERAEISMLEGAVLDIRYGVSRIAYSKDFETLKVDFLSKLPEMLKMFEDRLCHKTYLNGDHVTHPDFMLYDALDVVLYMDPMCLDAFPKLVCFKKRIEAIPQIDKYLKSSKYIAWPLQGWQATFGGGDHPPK

11C7 (chimeric version) (antibody) displayed a Kd of 0.057 nM, a koff of 8.25e-05 s⁻¹ and a kon of 1.44e+06 M⁻¹ s⁻¹.
